Test results published in patent publication US20110318339A1 (FABRUS, published 2011).

Tests used:
[1] = target: T1, recombinant human DLL4 (Cat# 1506-D4/CF, R&D Systems) (human, UniProt Q9NR61 27-529); assay: ELISA, hDLL4 coated 0.5 ng/ul, Fab 100.00 nM
T1 construct: Bought protein; also called hDLL4; h DLL4
Protocol: (§1) The plate was blocked by adding 1% BSA in Tris-buffered Saline Tween (TBST) and incubating for 1 hour at room temperature followed by washing 2 times with 150 μl TBST. A Fab antibody was serially diluted in 1% BSA in PBS. A 50 μl aliquot of each serial dilution was added, in triplicate, to each well and the plate was incubated for 1 hour at room temperature followed by washing 2 times with TBST. 50 μl of either goat anti-human kappa HRP conjugated secondary antibody (Cat # A7164-1 mL, Sigma-Aldrich) or goat anti-human lambda HRP conjugated secondary antibody (Cat # L1645-1 ml, Sigma-Aldrich), diluted 1:1000 in 1% BSA in PBS, was added to each well and the plate was incubated for 30 minutes at room temperature followed by washing 3 times with 200 μl TBST. Finally, 50 μl TMB one-component reagent (Cat # TMBW-1000-01, BioFax) was added and allowed to develop for 2 minutes at room temperature. The reaction was immediately halted by the addition of 50 μl 0.5M H₂SO₄ and the absorbance at 450 nm was measured using an ELISA plate reader.

[2] = target: T2, full-length human DLL4 expressed on the surface of CHO cells (human, UniProt Q9NR61 26-685); assay: flow cytometry competition, 250 nM biotinylated Notch-Fc as competitor, Fab 10 nM
T2 construct: also called CHO-DLL4; DLL4-expressing CHO cells
Protocol: (§2) Streptavidin-PE was used as a detection molecule.
(§3) Fab was 5-fold serially diluted in 2% BSA/PBS from a starting concentration of 50 nM. […] PE-labeled streptavidin (Cat# 21627, Pierce-Thermo Scientific) was then added to a final dilution of 1:5 followed by incubation for 10 minutes at room temperature. The cells were then washed twice in 2% BSA/PBS and analyzed by flow cytometry on a BD FACSAria.

[3] = target: T1, recombinant human DLL4 (Cat# …); assay: ELISA, hDLL4 coated 0.5 ng/ul, Fab 1.56 nM
Protocol: as §1

[4] = target: T1, recombinant human DLL4 (Cat# …); assay: ELISA, hDLL4 coated 0.5 ng/ul, Fab 0.78 nM
Protocol: as §1

[5] = target: T1, recombinant human DLL4 (Cat# …); assay: ELISA, hDLL4 coated 0.5 ng/ul, Fab 25.00 nM
Protocol: as §1

[6] = target: T1, recombinant human DLL4 (Cat# …); assay: ELISA, hDLL4 coated 0.5 ng/ul, Fab 12.50 nM
Protocol: as §1

[7] = target: T2, full-length human DLL4 expressed on the …; assay: flow cytometry competition, 250 nM biotinylated Notch-Fc as competitor, Fab 2 nM
Protocol: as §2, §3

[8] = target: T1, recombinant human DLL4 (Cat# …); assay: ELISA, hDLL4 coated 0.5 ng/ul, Fab 3.13 nM
Protocol: as §1

[9] = target: T1, recombinant human DLL4 (Cat# …); assay: ELISA, hDLL4 coated 0.5 ng/ul, Fab 6.25 nM
Protocol: as §1

[10] = target: T2, full-length human DLL4 expressed on the …; assay: flow cytometry competition, 250 nM biotinylated Notch-Fc as competitor, Fab 50 nM
Protocol: as §2, §3

[11] = target: T1, recombinant human DLL4 (Cat# …); assay: ELISA, hDLL4 coated 0.5 ng/ul, Fab 50.00 nM
Protocol: as §1

[12] = target: T3, Recombinant Human DLL4 (Cat# 1506-D4/CF, R&D Systems) (human, UniProt Q9NR61 27-529); assay: ELISA, hDLL4 coated, estimated from dose-dependent binding
T3 construct: Bought protein; also called rHuman DLL4; hDLL4

[13] = target: T1, recombinant human DLL4 (Cat# …); assay: ELISA, hDLL4 coated 0.5 ng/ul, Fab 1.25 nM
Protocol: (§4) In this example, an ELISA binding assay was used to assess the dose-dependent binding of Fab antibodies to recombinant human DLL4 and recombinant mouse DLL4.
as §1

[14] = target: T4, recombinant mouse DLL4 (Cat# 1389-D4-050/CF, R&D Systems) (mouse, UniProt Q9JI71 28-525); assay: ELISA, mDLL4 coated 0.5 ng/ul, Fab 0.63 nM
T4 construct: Bought protein; also called mDLL4
T4 sequence (Q9JI71 28-525 limits assumed): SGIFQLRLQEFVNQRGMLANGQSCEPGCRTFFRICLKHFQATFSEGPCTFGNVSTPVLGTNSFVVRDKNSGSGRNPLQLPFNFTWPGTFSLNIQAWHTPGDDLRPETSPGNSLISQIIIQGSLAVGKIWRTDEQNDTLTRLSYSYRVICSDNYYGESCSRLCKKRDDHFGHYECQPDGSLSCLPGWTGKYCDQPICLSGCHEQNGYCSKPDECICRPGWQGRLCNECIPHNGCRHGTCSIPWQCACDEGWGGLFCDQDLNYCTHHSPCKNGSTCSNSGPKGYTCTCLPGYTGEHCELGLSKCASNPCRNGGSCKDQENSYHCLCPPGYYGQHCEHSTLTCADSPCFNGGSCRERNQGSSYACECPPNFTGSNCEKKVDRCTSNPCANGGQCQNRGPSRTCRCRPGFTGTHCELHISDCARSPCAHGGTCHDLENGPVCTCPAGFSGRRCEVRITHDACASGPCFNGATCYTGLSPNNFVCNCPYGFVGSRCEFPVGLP
Protocol: as §1

[15] = target: T1, recombinant human DLL4 (Cat# …); assay: ELISA, hDLL4 coated 0.5 ng/ul, Fab 10.00 nM
Protocol: as §4, §1

[16] = target: T1, recombinant human DLL4 (Cat# …); assay: ELISA, hDLL4 coated 0.5 ng/ul, Fab 0.16 nM
Protocol: as §4, §1

[17] = target: T4, recombinant mouse DLL4 (Cat# …); assay: ELISA, mDLL4 coated 0.5 ng/ul, Fab 2.50 nM
Protocol: as §4, §1

[18] = target: T4, recombinant mouse DLL4 (Cat# …); assay: ELISA, mDLL4 coated 0.5 ng/ul, Fab 5.00 nM
Protocol: as §4, §1

[19] = target: T4, recombinant mouse DLL4 (Cat# …); assay: ELISA, mDLL4 coated 0.5 ng/ul, Fab 0.31 nM
Protocol: as §1

[20] = target: T1, recombinant human DLL4 (Cat# …); assay: ELISA, hDLL4 coated 0.5 ng/ul, Fab 0.63 nM
Protocol: as §1

[21] = target: T1, recombinant human DLL4 (Cat# …); assay: ELISA, hDLL4 coated 0.5 ng/ul, Fab 5.00 nM
Protocol: as §4, §1

[22] = target: T1, recombinant human DLL4 (Cat# …); assay: ELISA, hDLL4 coated 0.5 ng/ul, Fab 0.08 nM
Protocol: as §1

[23] = target: T1, recombinant human DLL4 (Cat# …); assay: ELISA, hDLL4 coated 0.5 ng/ul, Fab 2.50 nM
Protocol: as §4, §1

[24] = target: T1, recombinant human DLL4 (Cat# …); assay: ELISA, hDLL4 coated 0.5 ng/ul, Fab 0.31 nM
Protocol: as §4, §1

[25] = target: T4, recombinant mouse DLL4 (Cat# …); assay: ELISA, mDLL4 coated 0.5 ng/ul, Fab 0.16 nM
Protocol: as §1

[26] = target: T4, recombinant mouse DLL4 (Cat# …); assay: ELISA, mDLL4 coated 0.5 ng/ul, Fab 1.25 nM
Protocol: as §4, §1

[27] = target: T4, recombinant mouse DLL4 (Cat# …); assay: ELISA, mDLL4 coated 0.5 ng/ul, Fab 10.00 nM
Protocol: as §1

[28] = target: T4, recombinant mouse DLL4 (Cat# …); assay: ELISA, mDLL4 coated 0.5 ng/ul, Fab 0.08 nM
Protocol: as §1

[29] = target: T3, Recombinant Human DLL4 (Cat# …); assay: ELISA, DLL4 coated

B1: Fab VH5-51_IGHD5-18*01>3_IGHJ4*01 G100K/G104T G24T/S28R/G35V (H:KT TRV) & V3-4_IGLJ1*01 (Fab, V domains shown)
VH: EVQLVQSGAEVKKPGESLKISCKTSGYRFTSYWIVWVRQMPGKGLEWMGIIYPGDSDTRYSPSFQGQVTISADKSISTAYLQWSSLKASDTAMYYCARRKYSYTYDYFDYWGQGTLVTVSS
VL: QTVVTQEPSFSVSPGGTVTLTCGLSSGSVSTSYYPSWYQQTPGQAPRTLIYSTNTRSSGVPDRFSGSILGNKAALTITGAQADDESDYYCVLYMGSGISYVFGTGTKVTVL
notes: Tested as Fab from E. coli (Plasmid A: CH1, His6, Flag; Plasmid E: CL lambda); also called H:KT TRV & L:wt
- ELISA absorbance at 450 nm [1]: 1.45 A450
- signal of Notch-Fc bound to CHO-DLL4 (streptavidin-PE) [2]: 244
- ELISA absorbance at 450 nm [3]: 0.183 A450
- ELISA absorbance at 450 nm [4]: 0.143 A450
- ELISA absorbance at 450 nm [5]: 0.6 A450
- ELISA absorbance at 450 nm [6]: 0.389 A450
- signal of Notch-Fc bound to CHO-DLL4 (streptavidin-PE) [7]: 448
- ELISA absorbance at 450 nm [8]: 0.187 A450
- ELISA absorbance at 450 nm [9]: 0.31 A450
- signal of Notch-Fc bound to CHO-DLL4 (streptavidin-PE) [10]: 141
- ELISA absorbance at 450 nm [11]: 0.976 A450

B2: Fab VH5-51_IGHD5-18*01>3_IGHJ4*01 G100K/G104T G24T/S28R/G35V (H:KT TRV) & V3-4_IGLJ1*01 V91L/S96P S52G (L:LP S52G) (Fab, V domains shown)
VH: EVQLVQSGAEVKKPGESLKISCKTSGYRFTSYWIVWVRQMPGKGLEWMGIIYPGDSDTRYSPSFQGQVTISADKSISTAYLQWSSLKASDTAMYYCARRKYSYTYDYFDYWGQGTLVTVSS
VL: QTVVTQEPSFSVSPGGTVTLTCGLSSGSVSTSYYPSWYQQTPGQAPRTLIYGTNTRSSGVPDRFSGSILGNKAALTITGAQADDESDYYCLLYMGPGISYVFGTGTKVTVL
notes: Tested as Fab from E. coli (Plasmid A: CH1, His6, Flag; Plasmid E: CL lambda); also called H:KT TRV & L:LP S52G
- signal of Notch-Fc bound to CHO-DLL4 (streptavidin-PE) [2]: 190
- signal of Notch-Fc bound to CHO-DLL4 (streptavidin-PE) [7]: 250
- signal of Notch-Fc bound to CHO-DLL4 (streptavidin-PE) [10]: 105

B3: Fab VH5-51_IGHD5-18*01>3_IGHJ4*01 H:KT TRV & V3-4_IGLJ1*01 (Fab, V domains shown)
VH: EVQLVQSGAEVKKPGESLKISCKTSGYRFTSYWIVWVRQMPGKGLEWMGIIYPGDSDTRYSPSFQGQVTISADKSISTAYLQWSSLKASDTAMYYCARRKYSYTYDYFDYWGQGTLVTVSS
VL: QTVVTQEPSFSVSPGGTVTLTCGLSSGSVSTSYYPSWYQQTPGQAPRTLIYSTNTRSSGVPDRFSGSILGNKAALTITGAQADDESDYYCVLYMGSGISYVFGTGTKVTVL
notes: Fab, lambda light chain; also called H:KT TRV & L:wt; G100K/G104T G24T/S28R/G35V
- Kd [12]: ~50 nM

B4: Fab VH1-46_IGHD6-6*01_IGHJ1*01 S102A/S103P/S104F/H111F I51V/N52L/S54T/G56H (H:APFF VLTH) & L6_IGKJ1*01 S28N/S30D/S31H S52L/A55S (L:NDH LS) (Fab, V domains shown)
VH: QVQLVQSGAEVKKPGASVKVSCKASGYTFTSYYMHWVRQAPGQGLEWMGIVLPTGHSTSYAQKFQGRVTMTRDTSTSTVYMELSSLRSEDTAVYYCAREEYAPFSAEYFQFWGQGTLVTVSS
VL: EIVLTQSPATLSLSPGERATLSCRASQNVDHYLAWYQQKPGQAPRLLIYDALNRSTGIPARFSGSGSGTDFTLTISSLEPEDFAVYYCQQRSNWPPWTFGQGTKVEIKR
notes: Tested as Fab from E. coli (Plasmid A: CH1, His6, Flag; Plasmid C: CL kappa); also called H:APFF VLTH & L:NDH LS; APFF VLTH / NDH LS
- ELISA absorbance at 450 nm [13]: 1.65 A450
- signal of Notch-Fc bound to CHO-DLL4 (streptavidin-PE) [2]: 30
- ELISA absorbance at 450 nm [14]: 0.404 A450
- ELISA absorbance at 450 nm [15]: 2.25 A450
- ELISA absorbance at 450 nm [16]: 0.593 A450
- ELISA absorbance at 450 nm [17]: 0.983 A450
- ELISA absorbance at 450 nm [18]: 1.28 A450
- ELISA absorbance at 450 nm [19]: 0.205 A450
- ELISA absorbance at 450 nm [20]: 1.4 A450
- ELISA absorbance at 450 nm [21]: 2.06 A450
- signal of Notch-Fc bound to CHO-DLL4 (streptavidin-PE) [7]: 117
- ELISA absorbance at 450 nm [22]: 0.259 A450
- ELISA absorbance at 450 nm [23]: 1.96 A450
- ELISA absorbance at 450 nm [24]: 0.85 A450
- ELISA absorbance at 450 nm [25]: 0.142 A450
- ELISA absorbance at 450 nm [26]: 0.604 A450
- signal of Notch-Fc bound to CHO-DLL4 (streptavidin-PE) [10]: 30
- ELISA absorbance at 450 nm [27]: 1.55 A450
- ELISA absorbance at 450 nm [28]: 0.078 A450

B5: Fab H:APFF VLTH & L:NDH (Fab, V domains shown)
VH: QVQLVQSGAEVKKPGASVKVSCKASGYTFTSYYMHWVRQAPGQGLEWMGIVLPTGHSTSYAQKFQGRVTMTRDTSTSTVYMELSSLRSEDTAVYYCAREEYAPFSAEYFQFWGQGTLVTVSS
VL: EIVLTQSPATLSLSPGERATLSCRASQNVDHYLAWYQQKPGQAPRLLIYDASNRATGIPARFSGSGSGTDFTLTISSLEPEDFAVYYCQQRSNWPPWTFGQGTKVEIKR
notes: Fab, kappa light chain
- Kd [12]: ~1 nM
- fold increased binding affinity against the antibody mutants with heavy chain H:APFF ALTH [29]: ~10 fold
